Measured values: IntAct's records for PubMed 21048939

Target: arhg7_human ARHGEF7 (UniProt Q14155)
UniProt Q14155, sequence (Q14155 whole entry): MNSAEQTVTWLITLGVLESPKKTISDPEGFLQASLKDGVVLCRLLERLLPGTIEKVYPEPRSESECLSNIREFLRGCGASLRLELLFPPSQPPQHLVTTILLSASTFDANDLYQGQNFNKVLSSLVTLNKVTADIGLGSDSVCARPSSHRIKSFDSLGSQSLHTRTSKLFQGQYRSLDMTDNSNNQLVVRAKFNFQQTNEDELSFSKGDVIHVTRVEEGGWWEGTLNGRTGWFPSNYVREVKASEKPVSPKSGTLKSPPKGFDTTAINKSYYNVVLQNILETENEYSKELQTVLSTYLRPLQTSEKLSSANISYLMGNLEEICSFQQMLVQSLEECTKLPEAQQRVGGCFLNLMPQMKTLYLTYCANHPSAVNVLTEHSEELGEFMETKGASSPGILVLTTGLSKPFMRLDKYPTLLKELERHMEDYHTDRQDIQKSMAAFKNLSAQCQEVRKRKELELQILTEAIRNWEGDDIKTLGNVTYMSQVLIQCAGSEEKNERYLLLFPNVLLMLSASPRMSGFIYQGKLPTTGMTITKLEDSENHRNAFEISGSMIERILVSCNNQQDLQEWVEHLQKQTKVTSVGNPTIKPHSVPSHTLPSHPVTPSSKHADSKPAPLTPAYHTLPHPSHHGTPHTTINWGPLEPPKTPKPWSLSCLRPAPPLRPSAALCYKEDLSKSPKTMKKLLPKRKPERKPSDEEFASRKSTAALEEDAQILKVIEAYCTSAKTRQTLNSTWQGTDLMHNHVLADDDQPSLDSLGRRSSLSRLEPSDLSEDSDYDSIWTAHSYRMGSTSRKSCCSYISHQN

Row | Substance | effect of a mutation on the interaction
1 | Leucine-rich repeat serine/threonine-protein kinase 2 (Homo sapiens), Q5S007 R1441C | decreasing interaction
2 | Leucine-rich repeat serine/threonine-protein kinase 2 (Homo sapiens), Q5S007 T1348N | decreasing interaction
3 | Leucine-rich repeat serine/threonine-protein kinase 2 (Homo sapiens), Q5S007 N1437S | decreasing interaction
